Laboratory results reported in patent US10617749B1, “Composition of matter and methods for alteration of dendritic cell metabolism to augment cancer vaccine efficacy” (Duke University, priority 2016, dated 2020).
“Also recorded” adds a separate entry of the source.

Key:
[1] = test system: bone marrow-derived DCs (BMDCs); test: DC oxygen consumption rate (OCR) / OXPHOS, extracellular flux analysis; type: cell-based, murine; conditions: BMDCs treated with the agent alone vs untreated
Method: (§1) DC energy metabolism was measured using the XF^e24 extracellular flux analyzer (Seahorse Bioscience), with the glycolysis stress test kit and the mitochondrial stress test kit as previously described (Everts et al., 2014; Zhao and Klimecki, 2015).
(§2) Murine bone marrow-derived DCs (BMDCs) were harvested and differentiated as previously described and purified using CD11c microbeads (Miltenyi Biotec) according to manufacturer's protocol. DC purity was monitored by flow cytometry and consistently found to be >95% CD11c+F4/80-. BRAFV600EPTEN−/−-Wnt5aKD and BRAFV600EPTEN−/−-NTC cell lines were generated and cultured as previously described. DC2.4, a murine dendritic cell line was kindly provided by Dr. Kenneth L. Rock (University of Massachusetts Medical School), and cultured as previously described. DC2.4β-cateninKD, DC2.4-CPT1AKD, and DC2.4-NTC stable cell lines were generated using a β-catenin-targeted, CPT1A-targeted, or control shRNA-expressing lentivirus followed by puromycin selection. DCs were treated with Wnt3a (100 ng/mL), Wnt5a (200 ng/mL), LPS (1 μg/mL), 1-MT, 2DG (1 mM), or ETO (100 µM) vs vehicle control either for 24 or 48 hrs prior to their use in both in vitro and in vivo experiments.

[2] = test system: DC-induced CD4+ FoxP3+ Tregs; test: In vitro Treg assay; type: cell-based, mouse; conditions: for DC-mediated Treg differentiation in vitro: pre-treated DCs co-cultured with naïve CD4+ T cells
Method: In vivo Treg assay. DCs (C57, H-2^b) were pre-treated for 48 hours and delivered by intradermal injection into the footpad of Foxp3-mRFP mice. Draining inguinal and popliteal lymph nodes were resected 5 days later and analyzed for CD4^+ Foxp3^+ Tregs. In vitro Treg assay, DCs (Balb/c, H-2^d) were pre-treated for either 24 or 48 hrs, and re-plated at a 1:3 DC:T-cell ratio with purified naïve Foxp3-mRFP(H-2^b) CD4^+ Tcells. These co-cultures were incubated for 6 days and quantitated for CD4^+ FoxP3^+ Tregs by flow cytometry.
as §2

[3] = test system: bone marrow-derived DCs (BMDCs); test: DC glycolysis, extracellular acidification rate (ECAR); type: cell-based, murine; conditions: with or without LPS
Method: as §1, §2

[4] = test system: DCs; test: DC ATP generation; type: cell-based; conditions: data not shown
[5] = test system: DC IDO; test: IDO enzymatic assay (kynurenine HPLC); type: cell-based, mouse; conditions: purified DC cultures, Wnt5a or Wnt5a+ETO
Method: DC IDO enzyme activity was measured by the conversion of L-tryptophan to L-kynurenine in conditioned media by HPLC (Pallotta et al., 2011). Intracellular hemin levels were measured using a colorimetric assay kit (BioVision).

[6] = test system: β-catenin-PPAR-γ complex; test: β-catenin co-immunoprecipitation in primary DCs; type: cell-based, murine
Source text: (§3) Primary antibodies including CPT1A (Cell signaling), PPAR-γ (Santa Cruz Biotechnology), β-catenin, β-actin (Millipore), p-AMPK(T172)/AMPK (Cell signaling), p-AKT(T308)/Akt (Cell Signaling) were used at 1:1000. Secondary antibodies including goat anti-rabbit IgG-HRP (Millipore) and goat anti-mouse IgG-HRP (Millipore) were used at 1:5000. Cells were lysed in Laemmli sample buffer after treatment and subjected to SDS-polyacrylamide gel electrophoresis and immunoblot analysis. For immunoprecipitation, cells were lysed in radio immunoprecipitation assay (RIPA) buffer [10 mM sodium phosphate (pH 8.0), 150 mM NaCl, 1% Triton X-100, 1% sodium deoxycholate, and 0.1% SDS in the presence of 1 mM DTT, 1 mM phenylmethylsulfonylfluoride, and a protease inhibitor cocktail (Sigma)], precleared with protein A beads, and then incubated with 1 μg of antibody against β-catenin or isotype control IgG with protein A-agarose beads on a rotator overnight at 4° C. After 3 washes with RIPA buffer, immunoprecipitated complexes were eluted in sample buffer by boiling and subjected to immunoblot analysis. Immunoblots were visualized by chemiluminescence substrate (ThermoFisher) and imaged by a ChemiDoc XRSplus system (BioRad).

[7] = test system: bone marrow-derived DCs (BMDCs); test: Extracellular lactate assay; type: cell-based, murine; conditions: BMDC culture media 0-48 hours
Method: L-Lactate levels were measured by lactate dehydrogenase conversion of L-lactate+NAD^+ to pyruvate+NADH following treatment with […] (Pesce et al., 1975). Lactate standards and samples were read at NADH specific absorbance 340 nm.

[8] = test system: Dendritic Cells; test: BODIPY and fatty acid uptake assay; type: cell-based, murine; conditions: TF2-C12 uptake, BODIPY
Method: Dendritic Cells were stained in 0.5 μg/ml BODIPY 493/503 in PBS for 15 min to determine neutral lipid content (Herber et al., 2010). Fatty acid uptake measurement in DCs were performed using a dodecanoic acid fluorescent TF2-C12 fatty acid (Sigma) according to the manufacturer's protocol.

[9] = test system: DC intracellular PpIX; test: PpIX flow cytometry analysis; type: cell-based, mouse; conditions: 48 hours treatment, then 1 mM δ-ALA 4 hrs
Method: Dendritic cells were terminally incubated in the presence of 1 mM δ-aminolevulinic acid (ALA) for 4 hrs. Intracellular PpIX was analyzed by flow cytometry as previously described (Hryhorenko et al., 1998).

[10] = test system: OT-1 CD8+ T cells; test: T cell proliferation assay; type: cell-based, mouse; conditions: SIINFEKL-loaded BMDCs co-incubated with OT-1 splenocytes
Method: Splenocytes of OT-1 mice (H-2^b) were isolated and stained with CellTrace Violet (ThermoFisher). Preconditioned DCs were loaded with ovalbumin peptide SIINFEKL, and co-cultured at a DC:splenocyte ratio of 40,000:120,000 cells for 72 hrs. CD8+ T cell proliferation was measured by the dilution of Cell Trace Violet dye by flow cytometry.

[11] = test system: BMDCs; test: Immunoblot of p-AMPK(T172) and p-AKT(T308) in BMDCs; type: cell-based, murine; conditions: Wnt5a 200 ng/mL
Source text: All data representative of 3 independent experiments.
as §3

[12] = test system: murine DCs; test: qrt-PCR / ELISA gene and cytokine expression in murine DCs; type: cell-based; conditions: for PPAR-γ and CPT1A expression: murine primary DCs; for expression of key glycolytic enzymes (phosphofructokinase, hexokinase, pyruvate kinase): primary DCs
Method: Total RNA was isolated by RNeasy Plus Mini Kit(Qiagen). RNA(500 ng) was used in cDNA Synthesis (iScript, BioRad). Quantification of mRNA for genes involved in PPARγ signaling was performed using Mouse PrimePCR PPAR Array according to the manufacturer's protocol (BioRad). Real-time PCR was performed using an ABI7500 Real-Time PCR system (Life Technologies). Data analysis utilized the PrimePCR Analysis Software (BioRad). Conventional qPCR was performed using validated primers (Table 1) and SsoAdvanced Universal SYBR Green Super mix (BioRad) or Taqman probes (Applied Biosystems) for heme synthesis enzymes.
Murine IL-6 (eBioscience) and IL-12p40 (Becton Dickinson) ELISAs were performed according to manufacture's protocol.

[13] = test system: human monocyte-derived DC; test: PPARγ and CPT1A Western blot in human monocyte-derived DCs; type: cell-based
Source text: as §3
(§4) Human Monocyte-derived Dendritic Cells were generated as previously described.

[14] = test system: human monocyte-derived DCs; test: OCR analysis of human monocyte-derived DCs; type: cell-based; conditions: human monocyte-derived DCs, Wnt5a 48 hours
Method: Human DCs were differentiated from harvested peripheral blood mononuclear cells and pre-treated with Wnt5a 48 hours prior to OCR analysis. Short-term incubation with ETO was performed prior to analysis.
as §1, §4

NC(=O)c1ncn([C@@H]2O[C@H](CO)[C@@H](O)[C@H]2O)c1N [AICAR]
DC OXPHOS (OCR) [1]: suppresses OXPHOS

CC[C@H]1/C=C/C=C/C[C@@H](C)[C@H](O)[C@@](C)(O)C(=O)[C@@H](C)[C@H](O)[C@@H](C)C(=O)[C@@H](C)[C@H](O)[C@@H](C)/C=C/C(=O)O[C@@H]2[C@H](C)[C@H](CC1)O[C@]1(CC[C@H](C)[C@H](C[C@@H](C)O)O1)[C@H]2C [oligomycin]
DC-mediated Treg differentiation in vitro [2]: potently suppressed Wnt5a induction of DC-mediated Treg differentiation; also recorded: almost complete elimination of these Treg populations

Oc1nc(-c2ccc(C(F)(F)F)cc2)nc2c1CSCC2 [XAV939]
DC glycolysis (ECAR) [3]: promote DC glycolysis

Cn1cc(CC(N)C(=O)O)c2ccccc21 (stereo not drawn) [1-MT]
DC-dependent Treg differentiation promoted by melanoma-derived conditioned media ([2]; DCs with BRAFV600E-PTEN−/− conditioned media): only modestly suppressed

O=CC[C@@H](O)[C@H](O)[C@H](O)CO [2-DG, 2-deoxyglucose]
DC-mediated Treg differentiation in vitro [2]: enhancement of DC-dependent Treg expansion; also recorded: enhanced Treg differentiation

B1: Wnt5a: Wnt ligand used to treat DCs (200 ng/mL) (protein, UniProt P41221 62-380, looked up)
Protein Wnt-5a: IIGAQPLCSQLAGLSQGQKKLCHLYQDHMQYIGEGAKTGIKECQYQFRHRRWNCSTVDNTSVFGRVMQIGSRETAFTYAVSAAGVVNAMSRACREGELSTCGCSRAARPKDLPRDWLWGGCGDNIDYGYRFAKEFVDARERERIHAKGSYESARILMNLHNNEAGRRTVYNLADVACKCHGVSGSCSLKTCWLQLADFRKVGDALKEKYDSAAAMRLNSRGKLVQVNSRFNSPTTQDLVYIDPSPDYCVRNESTGSLGTQGRLCNKTSEGMDGCELMCCGRGYDQFKTVQTERCHCKFHWCCYVKCKKCTEIVDQFVCK
DC OXPHOS (OCR) [1]: strongly promoting DC OXPHOS; also recorded: promotes DC oxidative phosphorylation (OXPHOS) | DC ATP generation [4]: no net effect on DC ATP generation | DC IDO enzymatic activity (kynurenine) [5]: capable of promoting DC IDO enzymatic activity | PPAR-γ binding to β-catenin [6]: PPAR-γ to bind to β-catenin upon Wnt5a stimulation | DC glycolysis (ECAR) [3]: inhibits DC glycolysis; also recorded: inhibit LPS-mediated DC glycolysis; also recorded: eliminates the glycolytic reserve of DCs while also significantly suppressing the lipopolysaccharide (LPS)-induced glycolytic surge; also recorded: suppresses LPS-induced DC glycolysis | lactate production [7]: suppress lactate production | DC fatty acid uptake and lipid stores [8]: enhance DC fatty acid uptake and lipid stores | DC levels of PpIX [9]: enhances DC levels of the PpIX prosthetic group in a manner that depends on the induction of FAO | DC-mediated antigen-specific CD8+ T cell proliferation [10]: suppresses LPS-induced DC-mediated antigen-specific T cell proliferation | AMPK activation (Thr-172 phospho-AMPK) ([11]; 24 and 48 hrs): suppress AMPK activation | DC Akt Thr-308 phosphorylation ([11]; 48 hrs): no significant impact | IL-6 and IL-12 expression in primary DCs ([12]; BMDCs, qrt-PCR): suppresses IL-6 and IL-12 expression in primary DCs | expression of ALAS1 and further PpIX/heme synthesis enzymes ([12]; DCs, qrt-PCR): upregulate the expression of ALAS1 as well as several additional enzymes involved in PpIX synthesis | PPAR-γ and CPT1A expression [12]: directly induce CPT1a expression in a PPARγ-dependent manner; also recorded: induces the upregulation of PPAR-γ and CPT1A | expression of key glycolytic enzymes (phosphofructokinase, hexokinase, pyruvate kinase) ([12]; qrt-PCR): suppresses the expression of key glycolytic enzymes; also recorded: suppress the expression of the key glycolytic enzymes | PPAR-γ and CPT1A expression [13]: induces the upregulation of PPAR-γ and CPT1A | OCR [14]: induces OCR in human monocyte-derived DCs

B2: Wnt3a: canonical Wnt ligand used to treat DCs (100 ng/mL) (protein, UniProt P56704 19-352, looked up)
Protein Wnt-3a: SYPIWWSLAVGPQYSSLGSQPILCASIPGLVPKQLRFCRNYVEIMPSVAEGIKIGIQECQHQFRGRRWNCTTVHDSLAIFGPVLDKATRESAFVHAIASAGVAFAVTRSCAEGTAAICGCSSRHQGSPGKGWKWGGCSEDIEFGGMVSREFADARENRPDARSAMNRHNNEAGRQAIASHMHLKCKCHGLSGSCEVKTCWWSQPDFRAIGDFLKDKYDSASEMVVEKHRESRGWVETLRPRYTYFKVPTERDLVYYEASPNFCEPNPETGSFGTRDRTCNVSSHGIDGCDLLCCGRGHNARAERRREKCRCVFHWCCYVSCQECTRVYDVHTCK
DC OXPHOS (OCR) [1]: no changes in either DC OXPHOS or glycosis | DC glycolysis (ECAR) [3]: no changes in either DC OXPHOS or glycosis | DC levels of PpIX [9]: failed to enhance PpIX synthesis in DCs | PPAR-γ and CPT1A expression [12]: failed to induce the expression of both PPAR-γ and CPT1A in DCs | expression of key glycolytic enzymes (phosphofructokinase, hexokinase, pyruvate kinase) ([12]; qrt-PCR): promotes the expression of key glycolytic enzymes
